Reference: patent publication US20160237160A1 (Bayer, published 2016)

Key:
[1] = biological target: T1, TPP-599 (HUMAN-TNFRSF12Aaa28-80-hIgG1-Fc) (human); assay: ELISA, 2.5 nM biotinylated TWEAKR-Fc coated, soluble Fab, anti-c-Myc detection
T1 construct: dimeric; also called human TWEAKR Fc; TWEAKR-Fc

[2] = biological target: TPP-1988 (hTNFRSF12Aaa28-80-M50A-hIgG1-Fc) (human); assay: ELISA, TWEAKR-Fc coated 62 ng/ml, biotin-IgG titrated; + means IC50 1 to 150 pM;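 also: biotinylated IgG binding to immobilized TWEAKR-Fc muteins, detected with Streptavidin-HRP and Amplex Red, IC50 derived from fitted dose-response curves of twofold serial dilutions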
Description: To collect dose-response data, the different TWEAKR-Fc muteins were coated with a low concentration (62 ng/ml) in a 384-well Maxisorb ELISA plate and a serial 2fold dilution of biotinylated IgG starting with a concentration of 100 nM was used as soluble binding partner. Detection was done with Streptavidin-HRP and Amplex Red.
The dose-response data were fitted and IC50s determined.

[3] = biological target: T2, TPP-2614 (TweakR-ECD-34-68-hIgGFc-His-D47A) (human); assay: ELISA, PDL-192(TPP-1104) coated at 1 µg/ml, eight-fold diluted HEK293 supernatant with the TWEAKR(34-68)-Fc mutein, anti-HIS-HRP, Amplex Red
T2 construct: also called D47A TWEAKR mutein
Description: S37A, R38A, S40A, W42A, S43A, D45A, D47A, K48A, D51A, S54A, R56A, R58A, P59A, H60A, S61A, D62A, F63A and L65A muteins were expressed in HEK293 cells (black diamonds).
These TWEAKR(34-68)-Fc muteins were expressed in HEK293 cells. To collect dose-response data, IgGs were coated at a concentration of 1 μg/ml in a 384-well Maxisorp ELISA plate and a serial 2fold dilution of the TWEAKR mutein containing supernatant was used as soluble binding partner. Detection was done with anti-HIS-HRP and Amplex Red.

binding result [1] | binding result [2] | binding result [3] | Binder
binds |  |  | TPP-883 Fab variant G97F of CDR-L3 (Fab, V domains shown) VH: EVQLLESGGGLVQPGGSLRLSCAASGFTFSPYPMMWVRQAPGKGLEWVSYISPSGGKTHYADSVKGRFTISRDNSKNTLYLQMNSLRAEDTAVYYCARGGDGYFDYFDYWGQGTLVTVSS VL: DIQMTQSPATLSASVGDRVTITCRASQSISSYLNWYQQKPGKAPKLLIYAASSLQSGVPSRFSGSGSGTDFTLTISSLQPEDFATYYCQQSYSSPFITFGPGTKVEIK
binds |  |  | TPP-883 Fab variant S94T of CDR-L3 (Fab, V domains shown) VH: EVQLLESGGGLVQPGGSLRLSCAASGFTFSPYPMMWVRQAPGKGLEWVSYISPSGGKTHYADSVKGRFTISRDNSKNTLYLQMNSLRAEDTAVYYCARGGDGYFDYFDYWGQGTLVTVSS VL: DIQMTQSPATLSASVGDRVTITCRASQSISSYLNWYQQKPGKAPKLLIYAASSLQSGVPSRFSGSGSGTDFTLTISSLQPEDFATYYCQQSYTSPGITFGPGTKVEIK
 | binds | binds | PDL-192(TPP-1104) (antibody, human IgG1, kappa, V domains shown, Human IgG1; variable domains from WO2009/020933 with constant region added) VH: QVELVESGGGLVQPGGSLRLSCAASGFTFSSYWMSWVRQAPGKGLEWVAEIRLKSDNYATHYAESVKGRFTISRDDSKNSLYLQMNSLRAEDTAVYYCTGYYADAMDYWGQGTLVTVSS VL: DIQMTQSPSSLSASVGDRVTITCRASQSVSTSSYSYMHWYQQKPGKAPKLLIKYASNLESGVPSRFSGSGSGTDFTLTISSLQPEDFATYYCQHSWEIPYTFGGGTKVEIKR
